In paper PMC5316852:

Target: NavMs prokaryotic sodium channel, wild type, full-length construct (Magnetococcus marinus (Magnetococcus sp. strain MC-1)) (UniProt A0L5S6)
Assay: crystal structure; sitting drop, 0.05 M NaCl, 0.1 M MES pH 6.5, 37.8% v/v PEG 400, 4% ethylene glycol; protein purified in HEGA-10; molecular replacement with NavAb (PDB 3RVY)

stoichiometry N: 4
Substance: NavMs prokaryotic sodium channel, wild type, full-length construct (from UniProt A0L5S6 1-274) (natural protein)
